Our source for the SPR response without ligand (the pair that is blocked) values is PMC11376147 (Chemical Science, 2024).

This assay concerns the target SARS-CoV-2 Spike glycoprotein (SARS-CoV-2) (UniProt P0DTC2). The assay can be described thus: SPR.

In turn, “L-SIGN entire extracellular domain (ECD) (from UniProt Q9H2X3 71-399) (receptor)” came in with an SPR response without ligand (the pair that is blocked) of 2000 RU.

Regarding “DC-SIGN entire extracellular domain (ECD) (from UniProt Q9NNX6 59-404) (receptor)”, the SPR response without ligand (the pair that is blocked) was found to be 2500 RU.
